In one data set the target is T1, FANCJ M299I (UniProt Q9BX63 1-1249, M299I).
T1 sequence: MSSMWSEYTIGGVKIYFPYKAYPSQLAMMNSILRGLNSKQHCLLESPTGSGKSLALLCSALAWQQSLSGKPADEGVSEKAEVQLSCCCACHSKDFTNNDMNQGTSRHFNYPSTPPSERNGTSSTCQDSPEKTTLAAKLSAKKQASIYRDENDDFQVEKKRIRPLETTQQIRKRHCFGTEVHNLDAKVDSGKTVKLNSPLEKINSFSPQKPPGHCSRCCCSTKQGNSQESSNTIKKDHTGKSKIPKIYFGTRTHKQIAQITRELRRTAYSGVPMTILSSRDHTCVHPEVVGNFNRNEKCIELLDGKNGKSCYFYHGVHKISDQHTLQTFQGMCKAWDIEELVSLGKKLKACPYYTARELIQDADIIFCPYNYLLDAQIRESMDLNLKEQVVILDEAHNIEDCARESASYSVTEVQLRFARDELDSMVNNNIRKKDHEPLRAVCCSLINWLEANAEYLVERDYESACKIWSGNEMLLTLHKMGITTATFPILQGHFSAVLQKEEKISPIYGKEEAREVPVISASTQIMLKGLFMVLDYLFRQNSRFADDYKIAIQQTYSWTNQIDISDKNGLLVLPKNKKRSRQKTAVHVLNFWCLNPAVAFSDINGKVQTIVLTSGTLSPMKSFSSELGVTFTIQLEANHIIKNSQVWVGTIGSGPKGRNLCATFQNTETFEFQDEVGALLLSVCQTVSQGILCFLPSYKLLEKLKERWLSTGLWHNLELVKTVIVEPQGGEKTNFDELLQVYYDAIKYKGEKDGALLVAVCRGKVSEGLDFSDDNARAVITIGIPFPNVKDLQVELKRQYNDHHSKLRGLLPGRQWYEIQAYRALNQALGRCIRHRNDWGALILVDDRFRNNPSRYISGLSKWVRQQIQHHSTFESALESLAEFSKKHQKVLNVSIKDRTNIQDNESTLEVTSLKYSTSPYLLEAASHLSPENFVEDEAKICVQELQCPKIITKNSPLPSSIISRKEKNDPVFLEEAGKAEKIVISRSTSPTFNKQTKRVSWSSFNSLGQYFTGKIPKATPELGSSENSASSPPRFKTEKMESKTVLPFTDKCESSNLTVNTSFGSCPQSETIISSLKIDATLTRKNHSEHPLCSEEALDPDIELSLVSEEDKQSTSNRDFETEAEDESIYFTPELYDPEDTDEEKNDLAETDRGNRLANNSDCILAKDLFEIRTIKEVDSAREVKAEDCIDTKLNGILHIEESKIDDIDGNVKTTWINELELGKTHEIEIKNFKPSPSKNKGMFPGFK
As to the kind of experiment: EMSA; 10/40/70 nM protein, 5 nM DNA, no ATP; wild-type level of binding; EMSA: 15 mM Na-phosphate pH 7.4, 45 mM NaCl, 3% glycerol, 40 mM Tris-HCl pH 7.4, 25 mM KCl, 100 ng/ul BSA, 2 mM DTT, 0.1 mM EDTA; 30 min at 25 C; 5% PAGE in 1x. To be noted: protein: recombinant; tags: N-terminal Flag; label: 5'-FAM on strand 1. (In general: A gel shift assay detects complexes by their altered migration in electrophoresis.)

The next data set addresses T2, FANCJ K52R (UniProt Q9BX63 1-1249, K52R).
T2 sequence: T1 sequence with K52R, I299M
As to the kind of experiment: EMSA; 10/40/70 nM protein, 5 nM DNA, no ATP; EMSA: 15 mM Na-phosphate pH 7.4, 45 mM NaCl, 3% glycerol, 40 mM Tris-HCl pH 7.4, 25 mM KCl, 100 ng/ul BSA, 2 mM DTT, 0.1 mM EDTA; 30 min at 25 C; 5% PAGE in 1x. To be noted: protein: recombinant; tags: N-terminal Flag; label: 5'-FAM on strand 1.

Positions count from the first letter of the chain named.

B1: Y-structure (XO1/sDO1) (dsDNA)
DNA 1: GACGCTGCCGAATTCTACCAGTGCCTTGCTAGGACATCTTTG
DNA 2: TTTTTTTTTTTTTTTTTTTTTTTTTTTTTTTTTTTTGGTAGAATTCGGCAGCGT
Turning to B1, the binding result with FANCJ M299I and with FANCJ K52R was “binds” in each case.

(Values after publication PMC7316351, “Cancer-associated mutations in the iron-sulfur domain of FANCJ affect G-quadruplex metabolism”.)
